One molecule from article PMC3575409, “Identification of a Novel Protein-Protein Interaction Motif Mediating Interaction of GPCR-Associated Sorting Proteins with G Protein-Coupled Receptors” (PLoS ONE, 2013) can be followed below.

For experiment [1], the system named is GFP-tagged M1 receptor in HEK293 cells. Description: Co-immunoprecipitation, M1. Particulars: 48 h expression, anti-GFP immunoprecipitation. In kind it is cell-based. As to the method:
HEK293 cells stably expressing N-terminal GFP-tagged ADRB1, ADRB2, CALCR and M1 or MyrPalm-mYFP were transfected with pcDNA3.1 containing the sequence for a central domain of GASP-1 (AA 380 to 1073) using JetPEI reagent (polyplus transfection) according to the instructions from the manufacturer. After 48 h of expression, cells were washed twice with PBS and lysed in a buffer containing 10 mM Tris-HCl, pH 7.4, 150 mM NaCl, 25 mM KCl, 0.3% Triton X-100 and cOmplete protease inhibitors (Roche) for 1 h at 4°C under agitation. 500 µg of cleared lysates were incubated with 1 µg of a mouse monoclonal anti-GFP antibody (Invitrogen) overnight at 4°C, followed by an incubation with 40 µl of protein A-Sepharose beads for an additional 2 h at 4°C. Beads were then washed five times in lysis buffer and precipitates were resolved on an 8% gel by SDS–PAGE and electrotransferred to immobilon-P membranes (Millipore) in 50 mM Tris-boric acid for 1 h at 300 mA. Membranes were blocked with 5% non-fat powder milk in TBS-Tween (50 mM Tris-HCl pH 8, 150 mM NaCl, 0.4% Tween-20) for 1 h at room temperature. […] For immunodetection of GASP or GFP-tagged receptors directly from cell lysates, 10 µg of proteins were loaded on SDS gels and analyzed following the procedure described above. Finally, membranes were washed in TBS-Tween and detected by chemiluminescence (ECL prime, GE Healthcare). […]

Experiment [2] has as its target full-length ADRB2 (β2 adrenergic receptor). Description: SPR saturation binding, ADRB2. Further details: species or system human. The procedure: The human ADRB2 and CNR2 receptors were produced using the P. pastoris expression system as previously described, [16]. After methanol-induced receptor expression, cells were washed with PBS pH 7.0 and resuspended in ice-cold buffer A (50 mM Tris-HCl pH 7.4, 500 mM NaCl, 10% glycerol, 5 mM EDTA, 1 mM PMSF, 2 mM DDT). Cells were then lysed with two cycles of 20 s shaking and 20 s cooling on ice using 0.5 mm glass beads in a FastPrep 24 device. Unbroken cells and cell debris were removed by centrifugation (3000 g, 5 min, 4°C) and the membrane fraction from the supernatant was pelleted by ultracentrifugation (100,000 g, 45 min, 4°C). […] Finally membranes were resuspended in buffer B and quantified with the bicinchoninic acid (BCA) method (Pierce).
Approximately 150 mg membrane proteins were extracted by 5 min incubation at room temperature in buffer C (50 mM Tris-HCl pH 7.4, 500 mM NaCl, 10% glycerol, 1 mM PMSF, 2 mM DTT, 50 mM imidazole, 1% (w/v) DDM, 0.1% (w/v) CHS). […] Imidazole was removed from the eluted fraction using a HiTrap 5 ml desalting column (GE Healthcare), purified proteins were quantified using the BCA assay (Pierce) and receptor integrity was analyzed by SDS-PAGE. […]

B1: central domain of GASP-1: central portion of GASP-1 (AA 380 to 1073) that contains 19 GASP motif (protein)
chain: MTKEEAKTKARARAKQEARSEEEALIGTWFWATDESSMADEASIESSLQVEDESIIGSWFWTEEEASMGTGASSKSRPRTDGERIGDSLFGAREKTSMKTGAEATSESILAADDEQVIIGSWFWAGEEVNQEAEEETIFGSWFWVIDAASVESGVGVSCESRTRSEEEEVIGPWFWSGEQVDIEAGIGEEARPGAEEETIFGSWFWAENQTYMDCRAETSCDTMQGAEEEEPIIGSWFWTRVEACVEGDVNSKSSLEDKEEAMIPCFGAKEEVSMKHGTGVRCRFMAGAEETNNKSCFWAEKEPCMYPAGGGSWKSRPEEEEDIVNSWFWSRKYTKPEAIIGSWLWATEESNIDGTGEKAKLLTEEETIINSWFWKEDEAISEATDREESRPEAEEGDIIGSWFWAGEEDRLEPAAETREEDRLAAEKEGIVGSWFGAREETIRREAGSCSKSSPKAEEEEVIIGSWFWEEEASPEAVAGVGFESKPGTEEEEITVGSWFWPEEEASIQAGSQAVEEMESETEEETIFGSWFWDGKEVSEEAGPCCVSKPEDDEEMIVESWFWSRDKAIKETGTVATCESKPENEEGAIVGSWFEAEDEVDNRTDNGSNCGSRTLADEDEAIVGSWFWAGDEAHFESNPSPVFRAICRSTCSVEQEPDPSRRPQSWEEVTVQFKPGPWGRVGFPSISPFRFPKE
modifications: left off: GST, N-terminal, kept
notes: central portion of GASP-1 (AA 380 to 1073) that contains 19 GASP motif
As to B1, in experiment [1], the “co-immunoprecipitation with M1” value is given as “co-immunoprecipitated”. For the same molecule, the “kinetics of the interaction” value in experiment [2] is “very stable and had a slow association rate”.
